Publication PMC7708434 (Biochimica et biophysica acta. General subjects, 2020)
Where two headings read alike, the source gives them in different places.

Assays:
crystal structure [1] = molecular target: the molecule itself; test: crystal structure
crystal structure [2] = molecular target: the molecule itself; test: crystal structure; remark: listed apart in the source

B1: 4-hydroxy-tetrahydrodipicolinate reductase (DapB) from Vibrio vulnificus strain CMCP6 (enzyme, UniProt Q8DEM0 1-269, looked up)
chain: MVRIAVAGAAGRMGRNLVKAAHHNPVAKVAAGSERPESSLVGVDLGELCGEGKFDVVVCDDLAKQIDQFDVIIDFTAPASTLNNLALCQQYGKSIVIGTTGFTEEQREQIDLVAQQVPVVMAPNYSVGVNLVFKLLEKAAKVMGDYCDIEIVEAHHRHKVDAPSGTAIGMGEAIAGAMGNKLSDVAVYAREGITGERTKDEIGFATIRAGDIVGEHTAMFADIGERVEITHKATDRMTFANGAVKAAVWLHEKPAGFYTMTDVLGLNDL
- stoichiometry N (crystal structure [1]): 4

B2: 4-hydroxy-tetrahydrodipicolinate reductase (DapB) from Mycobacterium tuberculosis HKBS1 (enzyme)
chain: MRVGVLGAKGKVGATMVRAVAAADDLTLSAELDAGDPLSLLTDGNTEVVIDFTHPDVVMGNLEFLIDNGIHAVVGTTGFTAERFQQVESWLVAKPNTSVLIAPNFAIGAVLSMHFAKQAARFFDSAEVIELHHPHKADAPSGTAARTAKLIAEARKGLPPNPDATSTSLPGARGADVDGIPVHAVRLAGLVAHQEVLFGTEGETLTIRHDSLDRTSFVPGVLLAVRRIAERPGLTVGLEPLLDLH
- stoichiometry N (crystal structure [2]): 4
